Laboratory results reported in PMC6591005 (Immunity, 2019).

Legend:
Conditions in all cases: both partners purified
GII.4.2002 P domain = GII.4.2002 P domain (Human norovirus GII.4 2002 Farmington …, UniProt R4I4P2, strain); assay: crystal structure
[1] = biological target: T1, GII.4 2012 Virus like particles (Human norovirus GII.4 Sydney 2012, …, UniProt K4LM89, strain); assay: ELISA; EIA: plates coated with VLP at 0.25 μg/ml in PBS for 4 h, blocked in 5% dry milk in PBS-0.05% Tween-20; two-fold serial dilutions of mAb at 37°C; anti-human IgG-HRP; less than 0.2 OD at 2 μg/ml scored as negative
T1 construct: copies: 180

[2] = biological target: T2, GII.4 2015 Virus like particles (Human norovirus GII.P16-GII.4 Sydney …, strain); assay: as above
T2 construct: copies: 180
T2 chain: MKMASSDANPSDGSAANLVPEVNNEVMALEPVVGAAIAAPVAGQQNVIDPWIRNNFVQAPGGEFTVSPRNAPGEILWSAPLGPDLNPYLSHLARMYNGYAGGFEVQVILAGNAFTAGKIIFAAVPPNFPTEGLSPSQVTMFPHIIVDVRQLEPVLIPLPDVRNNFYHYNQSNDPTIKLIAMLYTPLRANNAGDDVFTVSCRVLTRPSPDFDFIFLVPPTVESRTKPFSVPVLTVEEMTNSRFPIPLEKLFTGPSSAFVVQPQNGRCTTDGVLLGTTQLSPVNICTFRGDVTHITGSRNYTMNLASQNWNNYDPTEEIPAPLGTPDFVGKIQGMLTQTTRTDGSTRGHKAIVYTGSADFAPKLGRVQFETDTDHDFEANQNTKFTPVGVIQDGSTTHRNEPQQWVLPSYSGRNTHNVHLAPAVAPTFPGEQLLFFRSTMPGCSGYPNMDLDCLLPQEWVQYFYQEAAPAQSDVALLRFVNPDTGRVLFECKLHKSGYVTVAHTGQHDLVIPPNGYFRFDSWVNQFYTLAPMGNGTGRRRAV

[3] = biological target: GII.2 Virus like particles (Human norovirus GII.2 (Snow Mountain …, UniProt Q80RD6, strain)); assay: as above
[4] = biological target: T3, GII.4 1997 Virus like particles (Human norovirus GII.4 1997 (US95_96), …, UniProt R4I4R2, strain); assay: as above
T3 construct: copies: 180

[5] = biological target: T4, GII.4 2006b Virus like particles (Human norovirus GII.4 2006b …, UniProt R4I3T2, strain); assay: as above
T4 construct: copies: 180

[6] = biological target: T5, GII.4 2002 Virus like particles (Human norovirus GII.4 2002 Farmington …, UniProt R4I4P2, strain); assay: as above
T5 construct: copies: 180

[7] = biological target: GII.17 Virus like particles (Human norovirus GII.17, GenBank …, UniProt A0A0E3X5I8, strain); assay: as above
[8] = biological target: soluble GII.4 P domain from the 2006 pandemic strain (Human norovirus GII.4 2006, taken as …, UniProt R4I3T2, strain); assay: co-purification of the complex; Fab of A1227 purified in complex with soluble GII.4 P domains, screened for crystallization
[9] = biological target: soluble GII.4 P domain from the 2009 pandemic strain (Human norovirus GII.4 2009 New Orleans, …, UniProt D3YBZ4, strain); assay: as above
[10] = biological target: soluble GII.4 P domain from the 2012 pandemic strain (Human norovirus GII.4 Sydney 2012, …, UniProt K4LM89, strain); assay: as above

Measured: binding result

B1: A1431 Fab (Fab, V domains shown)
VH: QVQLVQSGGGLVQPGGSLRLSCAASGFAFSNHGMHWVRQAPGKGLEWLSYISGSTGAIHYANSVKGRFTISRDNARNSLDLQMNSLGDEDTAVYYCARDGPRPDGTGYAGPSNDYWGQGTLVSVSS
VL: EIVLTQSPASLSLSPGERATLSCKASRSISIYLAWYQQKPGQAPRLLIYDASYRAIGIPARFSGSGSGTDFTLTISNLEPEDFAVYYCQHRSSWPALTFGGGTKVEIK
binds: GII.4.2002 P domain

B2: A1227 (recombinant IgG1) (antibody, V domains shown)
VH: QVQLVQSGGGMVQPGGSLSLSCAASGFTLSNYAMTWVRQAPGKGLEWVSSIGGSGGTTYYADSVKGRFTISRDSSMNTLYLQMSNLRAGDTAVYYCAKDKTRTLRLGYSGMDVWGQGTTVTVSS
VL: DIRLTQSPSSLSASVGDRVTITCRASQSISSYLNWYQQKPGKAPDLLIYGASSLQSGVPSRFSGSGSGTDFTLTISSLQPEDFGNYYCQQSFSTPRTFGQGTKVELK
not listed: GII.4.2002 P domain | [8] | [9] | [10]
binds: all other assays above

B3: A1227 Fab (Fab, V domains shown)
VH: QVQLVQSGGGMVQPGGSLSLSCAASGFTLSNYAMTWVRQAPGKGLEWVSSIGGSGGTTYYADSVKGRFTISRDSSMNTLYLQMSNLRAGDTAVYYCAKDKTRTLRLGYSGMDVWGQGTTVTVSS
VL: DIRLTQSPSSLSASVGDRVTITCRASQSISSYLNWYQQKPGKAPDLLIYGASSLQSGVPSRFSGSGSGTDFTLTISSLQPEDFGNYYCQQSFSTPRTFGQGTKVELK
notes: also called Fab A1227
binds: [8] | [9] | [10]
